Numbered stars: 1 amine (or outer) side, 2 acyl side, 3 side chain; on linkers, the order of the positions; unused ones are H or OH. Bridge positions count the residues as written; N and C are the ends. Side chains are listed from the residue outwards. Ends that are not written are not given here. * marks the point of attachment. C20 diacid = O=C(O)CCCCCCCCCCCCCCCCCCC(=O)*; γGlu = O=C(O)[C@H](CCC(=O)[*:2])N[*:1]; AEEA = NCCOCCOCC(=O)O
T1: human calcitonin receptor (human, UniProt P30988 25-474)
T1 construct: whole, on cells; Used as cell membranes; also called hCTR; hCT
T1 sequence (looked up): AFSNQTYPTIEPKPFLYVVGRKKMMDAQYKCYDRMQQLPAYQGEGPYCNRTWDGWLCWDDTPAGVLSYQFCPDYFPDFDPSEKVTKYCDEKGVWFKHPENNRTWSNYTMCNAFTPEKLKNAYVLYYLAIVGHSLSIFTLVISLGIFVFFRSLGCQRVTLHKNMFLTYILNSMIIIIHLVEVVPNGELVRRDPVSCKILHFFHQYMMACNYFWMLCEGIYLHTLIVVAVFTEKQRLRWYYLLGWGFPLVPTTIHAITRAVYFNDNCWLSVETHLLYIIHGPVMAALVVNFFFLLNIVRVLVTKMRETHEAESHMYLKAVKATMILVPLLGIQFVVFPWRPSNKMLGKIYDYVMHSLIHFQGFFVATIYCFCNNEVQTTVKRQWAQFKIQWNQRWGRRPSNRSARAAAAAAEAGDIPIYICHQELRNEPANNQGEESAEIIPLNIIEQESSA


Columns and labels:
[1] = molecular target: T1, human calcitonin receptor; experiment: ratio of hCTR IC50 to hAmylin-R IC50 (reference: human amylin receptor)
Procedure: The resulting pellet was resuspended, homogenized and centrifuged (20.000 rpm, 15 min) in a buffer containing 20 mM Na-HEPES and 0.1 mM EDTA (pH 7.4, buffer 2). The resulting pellet was resuspended in buffer 2 and protein concentration was measured (BCA protein Assay, Pierce). The homogenate was kept cold during the whole procedure. The membranes were kept at −80° C. until use. The assay was performed in a 384 well Optiplate (PerkinElmer) in a total volume of 40 ul. Membranes were mixed with SPA beads. Final concentration of membranes 35 ng/μL final and SPA beads was 0.05 mg/well. Test-compounds were dissolved in DMSO and further diluted in assay buffer (50 mM Hepes, pH 7.4, 1 mM CaCl2, 5 mM MgCl₂, 0.1% OA and 0.02% Tween20). […] The final mixture was incubated with shaking at 400 rpm for 120 min at 25° C. prior to centrifugation (1500 rpm, 10 min). Samples were analyzed on TopCounter™ (Packard). The IC₅₀ was calculated using (one site binding competition analysis) GraphPad Prism5 as a measure of receptor affinity.
Membranes were prepared in the following way; the cells were rinsed with PBS and incubated with Versene for approximately 5 min before harvesting. The cells were flushed with PBS and the cell-suspension was centrifuged for 5 min at 1000 rpm. Cells were homogenized (Ultrathurrax) in a buffer containing 20 mM Na-HEPES and 10 mM EDTA (pH 7.4) and centrifuged at 20.000 rpm for 15 min. The resulting pellet was resuspended, homogenized and centrifuged (20.000 rpm, 15 min) in a buffer containing 20 mM Na-HEPES and 0.1 mM EDTA (pH 7.4, buffer 2). The resulting pellet was resuspended in buffer 2 and protein concentration was measured (BCA protein Assay, Pierce). The homogenate was kept cold during the whole procedure. The membranes were kept at −80° C. until use. Assay was performed in a 384 well Optiplate (PerkinElmer) in a total volume of 40 ul. Membranes were mixed with SPA beads.

[2] = molecular target: T1, human calcitonin receptor; experiment: SPA competition on BHK cell membranes, 125I-calcitonin as radioligand (Assay VII)
Procedure: Membranes were prepared in the following way; the cells were rinsed with PBS and incubated with Versene for approximately 5 min before harvesting. The cells were flushed with PBS and the cell-suspension was centrifuged for 5 min at 1000 rpm. Cells were homogenized (Ultrathurrax) in a buffer containing 20 mM Na-HEPES and 10 mM EDTA (pH 7.4) and centrifuged at 20.000 rpm for 15 min. The resulting pellet was resuspended, homogenized and centrifuged (20.000 rpm, 15 min) in a buffer containing 20 mM Na-HEPES and 0.1 mM EDTA (pH 7.4, buffer 2). The resulting pellet was resuspended in buffer 2 and protein concentration was measured (BCA protein Assay, Pierce). The homogenate was kept cold during the whole procedure. The membranes were kept at −80° C. until use. Assay was performed in a 384 well Optiplate (PerkinElmer) in a total volume of 40 ul. Membranes were mixed with SPA beads. Final concentration of membranes 35 ng/μL final and Final concentration of SPA beads was 0.05 mg/well. Test-compounds were dissolved in DMSO and further diluted in assay buffer (50 mM Hepes, pH 7.4, 1 mM CaCl2, 5 mM MgCl₂, 0.1% OA and 0.02% Tween20). […] The final mixture was incubated for 120 min with shaking at 400 rpm at 25° C. prior to centrifugation (1500 rpm, 10 min). Samples were analyzed on TopCounter™ (Packard). The […] was calculated using (one site binding competition analysis) GraphPad Prism5 as a measure of receptor affinity.

| Binder | Ratio hCT/hAmylin binding [1] | IC50 [2] |
| --- | --- | --- |
| K([AEEA-γGlu-C20 diacid])CNTATCATQRLARFLRHSSPNFGAIPSSTNVGSNTY-NH2 (disulfide 2-7; N-terminus assumed; SMILES CC[C@H](C)[C@H](NC(=O)[C@H](C)NC(=O)CNC(=O)[C@H](Cc1ccccc1)NC(=O)[C@H](CC(N)=O)NC(=O)[C@@H]1CCCN1C(=O)[C@H](CO)NC(=O)[C@H](CO)NC(=O)[C@H](Cc1c[nH]cn1)NC(=O)[C@H](CCCNC(=N)N)NC(=O)[C@H](CC(C)C)NC(=O)[C@H](Cc1ccccc1)NC(=O)[C@H](CCCNC(=N)N)NC(=O)[C@H](C)NC(=O)[C@H](CC(C)C)NC(=O)[C@H](CCCNC(=N)N)NC(=O)[C@H](CCC(N)=O)NC(=O)[C@@H](NC(=O)[C@H](C)NC(=O)[C@@H]1CSSC[C@H](NC(=O)[C@@H](N)CCCCNC(=O)COCCOCCNC(=O)CC[C@H](NC(=O)CCCCCCCCCCCCCCCCCCC(=O)O)C(=O)O)C(=O)N[C@@H](CC(N)=O)C(=O)N[C@@H]([C@@H](C)O)C(=O)N[C@@H](C)C(=O)N[C@@H]([C@@H](C)O)C(=O)N1)[C@@H](C)O)C(=O)N1CCC[C@H]1C(=O)N[C@@H](CO)C(=O)N[C@@H](CO)C(=O)N[C@H](C(=O)N[C@@H](CC(N)=O)C(=O)N[C@H](C(=O)NCC(=O)N[C@@H](CO)C(=O)N[C@@H](CC(N)=O)C(=O)N[C@H](C(=O)N[C@@H](Cc1ccc(O)cc1)C(N)=O)[C@@H](C)O)C(C)C)[C@@H](C)O, also called compound 82) | 140 | 88.8 nM |
| K([AEEA-γGlu-C20 diacid])CNTATCATQRLARFLRHSSPNFGAIPSSTPVGSNTY-NH2 (disulfide 2-7; N-terminus assumed; SMILES CC[C@H](C)[C@H](NC(=O)[C@H](C)NC(=O)CNC(=O)[C@H](Cc1ccccc1)NC(=O)[C@H](CC(N)=O)NC(=O)[C@@H]1CCCN1C(=O)[C@H](CO)NC(=O)[C@H](CO)NC(=O)[C@H](Cc1c[nH]cn1)NC(=O)[C@H](CCCNC(=N)N)NC(=O)[C@H](CC(C)C)NC(=O)[C@H](Cc1ccccc1)NC(=O)[C@H](CCCNC(=N)N)NC(=O)[C@H](C)NC(=O)[C@H](CC(C)C)NC(=O)[C@H](CCCNC(=N)N)NC(=O)[C@H](CCC(N)=O)NC(=O)[C@@H](NC(=O)[C@H](C)NC(=O)[C@@H]1CSSC[C@H](NC(=O)[C@@H](N)CCCCNC(=O)COCCOCCNC(=O)CC[C@H](NC(=O)CCCCCCCCCCCCCCCCCCC(=O)O)C(=O)O)C(=O)N[C@@H](CC(N)=O)C(=O)N[C@@H]([C@@H](C)O)C(=O)N[C@@H](C)C(=O)N[C@@H]([C@@H](C)O)C(=O)N1)[C@@H](C)O)C(=O)N1CCC[C@H]1C(=O)N[C@@H](CO)C(=O)N[C@@H](CO)C(=O)N[C@H](C(=O)N1CCC[C@H]1C(=O)N[C@H](C(=O)NCC(=O)N[C@@H](CO)C(=O)N[C@@H](CC(N)=O)C(=O)N[C@H](C(=O)N[C@@H](Cc1ccc(O)cc1)C(N)=O)[C@@H](C)O)C(C)C)[C@@H](C)O, also called compound 64) | 126 | 56 nM |

The next lines start with the values.

| Ratio hCT/hAmylin binding [1] | IC50 [2] | Binder |
| --- | --- | --- |
| 247 | 42.4 nM | K([AEEA-γGlu-C20 diacid])CNTATCATQRLAAFLRHSSPNFGAIPSSTPVGSNTY-NH2 (disulfide 2-7; N-terminus assumed; SMILES CC[C@H](C)[C@H](NC(=O)[C@H](C)NC(=O)CNC(=O)[C@H](Cc1ccccc1)NC(=O)[C@H](CC(N)=O)NC(=O)[C@@H]1CCCN1C(=O)[C@H](CO)NC(=O)[C@H](CO)NC(=O)[C@H](Cc1c[nH]cn1)NC(=O)[C@H](CCCNC(=N)N)NC(=O)[C@H](CC(C)C)NC(=O)[C@H](Cc1ccccc1)NC(=O)[C@H](C)NC(=O)[C@H](C)NC(=O)[C@H](CC(C)C)NC(=O)[C@H](CCCNC(=N)N)NC(=O)[C@H](CCC(N)=O)NC(=O)[C@@H](NC(=O)[C@H](C)NC(=O)[C@@H]1CSSC[C@H](NC(=O)[C@@H](N)CCCCNC(=O)COCCOCCNC(=O)CC[C@H](NC(=O)CCCCCCCCCCCCCCCCCCC(=O)O)C(=O)O)C(=O)N[C@@H](CC(N)=O)C(=O)N[C@@H]([C@@H](C)O)C(=O)N[C@@H](C)C(=O)N[C@@H]([C@@H](C)O)C(=O)N1)[C@@H](C)O)C(=O)N1CCC[C@H]1C(=O)N[C@@H](CO)C(=O)N[C@@H](CO)C(=O)N[C@H](C(=O)N1CCC[C@H]1C(=O)N[C@H](C(=O)NCC(=O)N[C@@H](CO)C(=O)N[C@@H](CC(N)=O)C(=O)N[C@H](C(=O)N[C@@H](Cc1ccc(O)cc1)C(N)=O)[C@@H](C)O)C(C)C)[C@@H](C)O, also called compound 72) |
| 60.7 | 36.5 nM | K([AEEA-γGlu-C20 diacid])CNTATCATQRLANFLRHSSPNFGAIPSSTNVGRNTY-NH2 (disulfide 2-7; N-terminus assumed; SMILES CC[C@H](C)[C@H](NC(=O)[C@H](C)NC(=O)CNC(=O)[C@H](Cc1ccccc1)NC(=O)[C@H](CC(N)=O)NC(=O)[C@@H]1CCCN1C(=O)[C@H](CO)NC(=O)[C@H](CO)NC(=O)[C@H](Cc1c[nH]cn1)NC(=O)[C@H](CCCNC(=N)N)NC(=O)[C@H](CC(C)C)NC(=O)[C@H](Cc1ccccc1)NC(=O)[C@H](CC(N)=O)NC(=O)[C@H](C)NC(=O)[C@H](CC(C)C)NC(=O)[C@H](CCCNC(=N)N)NC(=O)[C@H](CCC(N)=O)NC(=O)[C@@H](NC(=O)[C@H](C)NC(=O)[C@@H]1CSSC[C@H](NC(=O)[C@@H](N)CCCCNC(=O)COCCOCCNC(=O)CC[C@H](NC(=O)CCCCCCCCCCCCCCCCCCC(=O)O)C(=O)O)C(=O)N[C@@H](CC(N)=O)C(=O)N[C@@H]([C@@H](C)O)C(=O)N[C@@H](C)C(=O)N[C@@H]([C@@H](C)O)C(=O)N1)[C@@H](C)O)C(=O)N1CCC[C@H]1C(=O)N[C@@H](CO)C(=O)N[C@@H](CO)C(=O)N[C@H](C(=O)N[C@@H](CC(N)=O)C(=O)N[C@H](C(=O)NCC(=O)N[C@@H](CCCNC(=N)N)C(=O)N[C@@H](CC(N)=O)C(=O)N[C@H](C(=O)N[C@@H](Cc1ccc(O)cc1)C(N)=O)[C@@H](C)O)C(C)C)[C@@H](C)O, also called compound 78) |
